The values that follow come from patent US20220193132A1 (NATIONAL RESEARCH COUNCIL OF CANADA, published 2022).

The target of experiment [1] is T1, recombinant human EGFRvIII protein (extracellular domain), denatured (human, UniProt P00533 298-623).
T1 construct: Same protein as m21 after 95 C for 5 min in PBS with 40 mM DTT (denatured, reduced); also called EGFRvIII Denatured
The experiment can be described thus: ELISA Exp 2, purified mAb 1 ug/ml.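 Also: ELISA of purified mAb binding to plate-coated antigen, native or heat/DTT-denatured, with pNPP substrate developed for 30 min and incubations at room temperature.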
Method: (§1) Pre- and post-immune sera titers of animals were assessed by ELISA on recombinant EGFRvIII protein. Unless otherwise stated, all incubations were performed at room temperature. […] Microplates were washed three times in PBS and blocked for 30 min with PBS containing 1% bovine serum albumin (BSA, Sigma Cat #A7030). Blocking buffer was removed and 25 μl of serial dilutions of sera samples were added. […] After a 1-h incubation, microplates were washed 4 times and 25 μl of p-nitrophenyl phosphate (pNPP) substrate (Sigma-Aldrich Canada Co., Oakville, ON) at 1 mg/ml in carbonate buffer at pH 9.6 was added and further incubated for 30 min.
(§2) Antigens at 1-2 mg/ml were incubated at 95° C. for 5 min in PBS containing DTT at a final concentration of 40 mM. They were then incubated on ice for 5 min and diluted at their final coating concentration for ELISA purpose.
(§3) ELISA was performed as described above (serum titer determination) using 25 μl of mAb supernatant (Exp 1) or purified mAb at 1 μg/ml (Exp 2).

Experiment [2] deals with T2, recombinant human EGFRvIII protein (extracellular domain), native (human, UniProt P00533 298-623).
T2 construct: also called hEGFRvIII
The experiment can be described thus: ELISA Exp 2, purified mAb 1 ug/ml. (In an ELISA, binding on a coated surface is turned into a signal by an enzyme label.)
Method: as §1, §2, §3

Experiment [3] has as its target T3, recombinant human wild type EGFR protein (extracellular domain), denatured (human, UniProt P00533 25-645).
T3 construct: Same protein as m23 after 95 C for 5 min in PBS with 40 mM DTT (denatured, reduced); also called wt EGFR Denatured
Kind of experiment: ELISA Exp 2, purified mAb 1 ug/ml.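 Also: ELISA of purified mAb binding to plate-coated antigen, native or heat/DTT-denatured, with pNPP substrate developed for 30 min and incubations at room temperature.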
Method: as §1, §2, §3

For experiment [4], the target named is T4, recombinant human wild type EGFR protein (extracellular domain), native (human, UniProt P00533 25-645).
T4 construct: also called wt EGFR; EGFR WT
Kind of experiment: ELISA Exp 2, purified mAb 1 ug/ml.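 Also: ELISA of purified mAb binding to plate-coated antigen, native or heat/DTT-denatured, with pNPP substrate developed for 30 min and incubations at room temperature.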
Method: as §1, §2, §3

The target of experiment [5] is T5, wild type human EGFR, full length, overexpressed on U87MG cells (human, UniProt P00533 25-1210).
T5 construct: also called U87MG-EGFR wt; U87 WT
The experiment can be described thus: flow cytometry dose-response, U87MG-EGFRwt cells. A general note: A flow cytometer gives signals particle by particle.
Method: (§4) Prior to analysis, cells were plated such that they were not more than 80% confluent on the day of analysis. Unless otherwise stated, all media are kept are 4° C. and all incubations are performed on wet ice. Cells were washed in PBS, harvested by the addition of cell dissociation buffer (Sigma), centrifuged and resuspended in complete medium at a cell density of 2×10⁶ cells/mL. Fifty μL/well of cells were distributed in a polypropylene v-bottom 96 well plate and serial 1/3 dilutions of purified mAbs starting at 100 nM were added and incubated for 2 hours. […] Cells were washed and re-suspended in medium containing Propidium iodide to exclude dead cells from analysis. Samples were filtered through a 60 μm nylon mesh filter plate (Millipore, Ireland) to remove cell aggregates. Flow cytometry analyses were performed on 2,000 viable single-cells events gated on forward scattering, side scattering parameters and propidium iodide dye exclusion using a BD-LSRFortessa flow cytometer (Becton-Dickinson Biosciences, CA, USA) and a standard filter set using BD FACSDiva™ acquisition software, according to manufacturer's instructions.
(§5) Specific detection of antibody binding was calculated as the mean fluorescent intensity of binding to each primary antibody after background level subtraction of the mean fluorescent intensity of binding of mouse IgG control. The data were analyzed with GraphPad Prism v 6.0 software using one-site specific binding with Hill slope non-linear regression curve fit model to determine Bmax (maximum specific binding) and Kdₐₚₚ (concentration needed to achieve a half-maximum binding at equilibrium) for each mAb tested.

For experiment [6], the target named is T1, recombinant human EGFRvIII protein …. The experiment can be described thus: ELISA Exp 1, mAb supernatant.
Method: as §1, §2, §3
The target of experiment [7] is T2, recombinant human EGFRvIII protein …. The experiment can be described thus: ELISA Exp 1, mAb supernatant.
Method: as §1, §2, §3
In experiment [8] the target is T3, recombinant human wild type EGFR …. Kind of experiment: ELISA Exp 1, mAb supernatant.
Method: as §1, §2, §3
Experiment [9] has as its target T4, recombinant human wild type EGFR …. The experiment can be described thus: ELISA Exp 1, mAb supernatant.
Method: as §1, §2, §3
The target in experiment [10] is T3, recombinant human wild type EGFR …. Kind of experiment: ELISA on recombinant antigen.
Method: as §1, §2, §3
For experiment [11], the target named is T4, recombinant human wild type EGFR …. The experiment can be described thus: ELISA on recombinant antigen.
Method: as §1, §2, §3
Experiment [12] addresses T6, EGFRvIII, full length, overexpressed on glioblastoma cells (human, UniProt P00533 298-623).
T6 construct: Cells overexpress full length EGFRvIII (deletion of exons 2-7 of EGFR); Cell line (U87MG or DKMG) is named under assay; also called U87MG-EGFRvIII; U87vIII
Kind of experiment: flow cytometry dose-response on U87MG-EGFRvIII cells, apparent Kd.
Method: as §4, §5

Experiment [13] addresses T6, EGFRvIII, full length, overexpressed on …. The experiment can be described thus: cell-based or functional assay.
In experiment [14] the target is T7, EGFRvIII amino acid residues 15 to 37 with Lys36 to Ala mutation (human).
T7 construct: mutation is already in the entry
T7 peptide: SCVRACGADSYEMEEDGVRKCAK
Kind of experiment: yeast display flow cytometry, alanine scan.
From the text: (§6) Assessment of the binding of anti-EGFRvIII mAbs to the fusion proteins expressed on yeast cell surface was done by flow cytometry analysis. Briefly, yeast cells were labeled with both the anti-hEGFRvIII mAb and chicken anti-Myc antibody, the latter being used to monitor the level of expression of the fusion protein. Following a wash step, binding of the primary antibodies is probed by a two-color indirect fluorescence labeling using secondary antibodies specific for mouse and chicken antibodies, respectively.
(§7) To further characterize mAb epitopes within the EGFRvIII 15-37 region, an alanine scan of this region was performed, and modified fragments were expressed at the surface of the yeast. […] The resulting peptides were expressed at the surface of the yeast and each anti-EGFRvIII mAbs was tested on the corresponding yeast mutant strain by flow cytometry analysis. Thus, this assay determined the contribution of each amino acid(s) in the monoclonal antibody binding.

Experiment [15] addresses T8, EGFRvIII amino acid residues 15 to 37 with Lys34 to Ala mutation (human).
T8 construct: mutation is already in the entry
T8 peptide: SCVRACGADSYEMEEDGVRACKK
The experiment can be described thus: yeast display flow cytometry, alanine scan.
From the text: as §6, §7

Experiment [16] concerns the target T9, EGFRvIII amino acid residues 15 to 37 with Val32 to Ala mutation (human).
T9 construct: mutation is already in the entry
T9 peptide: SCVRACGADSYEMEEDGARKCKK
The experiment can be described thus: yeast display flow cytometry, alanine scan.
From the text: as §6, §7

Experiment [17] has as its target T10, EGFRvIII amino acid residues 15 to 37 with Cys35 to Ala mutation (human).
T10 construct: mutation is already in the entry
T10 peptide: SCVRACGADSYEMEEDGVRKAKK
Kind of experiment: yeast display flow cytometry, alanine scan.
From the text: as §6, §7

Experiment [18] addresses T11, EGFRvIII amino acid residues 15 to 37 with Arg33 to Ala mutation (human).
T11 construct: mutation is already in the entry
T11 peptide: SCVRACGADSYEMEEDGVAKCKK
Kind of experiment: yeast display flow cytometry, alanine scan.
From the text: as §6, §7

Experiment [19] has as its target T12, EGFRvIII amino acid residues 15 to 37 with Glu26 to Ala mutation (human).
T12 construct: mutation is already in the entry
T12 peptide: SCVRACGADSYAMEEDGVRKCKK
Kind of experiment: yeast display flow cytometry, alanine scan.
From the text: as §6, §7

In experiment [20] the target is T6, EGFRvIII, full length, overexpressed on …. Kind of experiment: cell-based or functional assay. This is another data set of the same source.
For experiment [21], the target named is T13, EGFRvIII fragment amino acid residues 15 to 37, displayed on yeast (human).
T13 construct: also called aa 15-37; fragment 15-37
T13 peptide: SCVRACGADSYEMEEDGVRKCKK
Kind of experiment: yeast surface display, flow cytometry.
From the text: as §6

Experiment [22] has as its target T14, EGFRvIII amino acid residues 15 to 37 with Glu28 to Ala mutation (human).
T14 construct: mutation is already in the entry
T14 peptide: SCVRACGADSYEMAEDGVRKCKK
Kind of experiment: yeast display flow cytometry, Myc-normalized.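 Also: Anti-EGFRvIII monoclonal antibodies tested by flow cytometry on yeast displaying alanine-substituted fragments, two-color indirect fluorescence with anti-Myc signal tracking fusion protein expression.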
From the text: as §6, §7

For experiment [23], the target named is T15, EGFRvIII amino acid residues 15 to 37 with Ser15 to Ala mutation (human).
T15 construct: mutation is already in the entry
T15 peptide: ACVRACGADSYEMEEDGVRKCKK
Kind of experiment: yeast display flow cytometry, Myc-normalized.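 Also: Anti-EGFRvIII monoclonal antibodies tested by flow cytometry on yeast displaying alanine-substituted fragments, two-color indirect fluorescence with anti-Myc signal tracking fusion protein expression.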
From the text: as §6, §7

Experiment [24] has as its target T16, EGFRvIII amino acid residues 15 to 37 with Met27 to Ala mutation (human).
T16 construct: mutation is already in the entry
Kind of experiment: yeast display flow cytometry, Myc-normalized.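 Also: Anti-EGFRvIII monoclonal antibodies tested by flow cytometry on yeast displaying alanine-substituted fragments, two-color indirect fluorescence with anti-Myc signal tracking fusion protein expression.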
From the text: as §6, §7

Experiment [25] concerns the target T17, EGFRvIII amino acid residues 15 to 37 with Val17 to Ala mutation (human).
T17 construct: mutation is already in the entry
T17 peptide: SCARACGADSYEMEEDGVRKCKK
Kind of experiment: yeast display flow cytometry, Myc-normalized.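 Also: Anti-EGFRvIII monoclonal antibodies tested by flow cytometry on yeast displaying alanine-substituted fragments, two-color indirect fluorescence with anti-Myc signal tracking fusion protein expression.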
From the text: as §6, §7

The target of experiment [26] is T18, EGFRvIII amino acid residues 15 to 37 with Tyr25 to Ala mutation (human).
T18 construct: mutation is already in the entry
T18 peptide: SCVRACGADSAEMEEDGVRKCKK
The experiment can be described thus: yeast display flow cytometry, Myc-normalized.
From the text: as §6, §7

Experiment [27] has as its target T19, EGFRvIII amino acid residues 15 to 37 with Arg18 to Ala mutation (human).
T19 construct: mutation is already in the entry
T19 peptide: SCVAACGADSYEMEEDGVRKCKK
The experiment can be described thus: yeast display flow cytometry, Myc-normalized.
From the text: as §6, §7

The target in experiment [28] is T20, EGFRvIII amino acid residues 15 to 37 with Lys37 to Ala mutation (human).
T20 construct: mutation is already in the entry
T20 peptide: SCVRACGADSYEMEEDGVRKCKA
The experiment can be described thus: yeast display flow cytometry, Myc-normalized.
From the text: as §6, §7

Experiment [29] deals with T21, EGFRvIII amino acid residues 15 to 37 with Glu29 to Ala mutation (human).
T21 construct: mutation is already in the entry
T21 peptide: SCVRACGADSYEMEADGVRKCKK
The experiment can be described thus: yeast display flow cytometry, Myc-normalized.
From the text: as §6, §7

Experiment [30] concerns the target T22, EGFRvIII amino acid residues 15 to 37 with Asp30 to Ala mutation (human).
T22 construct: mutation is already in the entry
T22 peptide: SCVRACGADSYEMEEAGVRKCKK
Kind of experiment: yeast display flow cytometry, Myc-normalized.
From the text: as §6, §7

Experiment [31] addresses T23, EGFRvIII amino acid residues 15 to 37 with Asp23 to Ala mutation (human).
T23 construct: mutation is already in the entry
T23 peptide: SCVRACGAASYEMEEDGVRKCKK
Kind of experiment: yeast display flow cytometry, Myc-normalized.
From the text: as §6, §7

In experiment [32] the target is T24, EGFRvIII amino acid residues 15 to 37 with Ser24 to Ala mutation (human).
T24 construct: mutation is already in the entry
T24 peptide: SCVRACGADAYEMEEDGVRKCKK
The experiment can be described thus: yeast display flow cytometry, Myc-normalized.
From the text: as §6, §7

The target of experiment [33] is T25, EGFRvIII amino acid residues 15 to 37 with Cys20 to Ala mutation (human).
T25 construct: mutation is already in the entry
T25 peptide: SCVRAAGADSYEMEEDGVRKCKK
Kind of experiment: yeast display flow cytometry, Myc-normalized.
From the text: as §6, §7

Experiment [34] addresses T26, EGFRvIII amino acid residues 15 to 37 with Gly21 to Ala mutation (human).
T26 construct: mutation is already in the entry
T26 peptide: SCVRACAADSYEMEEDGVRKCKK
The experiment can be described thus: yeast display flow cytometry, Myc-normalized.
From the text: as §6, §7

For experiment [35], the target named is T5, wild type human EGFR, full length, …. The experiment can be described thus: flow cytometry dose-response, U87MG EGFR wt cells.
Method: as §4, §5
The target in experiment [36] is T6, EGFRvIII, full length, overexpressed on …. Kind of experiment: flow cytometry dose-response on U87MG EGFRvIII cells, apparent Kd (n=3).
Method: Prior to analysis, cells were plated such that they were not more than 80% confluent on the day of analysis. Unless otherwise stated, all media are kept are 4° C. and all incubations are performed on wet ice. Cells were washed in PBS, harvested by the addition of cell dissociation buffer (Sigma), centrifuged and resuspended in complete medium at a cell density of 2×10⁶ cells/mL. Fifty μL/well of cells were distributed in a polypropylene v-bottom 96 well plate and serial 1/3 dilutions of purified mAbs starting at 100 nM were added and incubated for 2 hours. […] Cells were washed and re-suspended in medium containing Propidium iodide to exclude dead cells from analysis. Samples were filtered through a 60 μm nylon mesh filter plate (Millipore, Ireland) to remove cell aggregates. […]
as §5
Experiment [37] has the same target. The experiment can be described thus: flow cytometry dose-response on DKMG EGFRvIII cells (n=1).
Method: as §4
(§8) These cells were grown in RPMI and 10% fetal bovine serum using standard culturing conditions.
Experiment [38] has the same target. The experiment can be described thus: flow cytometry dose-response on DKMG EGFRvIII cells, apparent Kd (n=1).
Method: as §4, §8

T16 sequence (peptide, as listed by the source, change not shown): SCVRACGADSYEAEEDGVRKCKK

B1: 13.1.2 mIgG1 (antibody, V domains shown)
VH: QVQLVESGGGVVQPGRSLRLSCAASGFTFSSYGMHWVRQAPGKGLEWVAVIWYDGSNKYYVDSVKGRFTISRDNSKNTLYLQMNSLRAEDTAVYYCARDGWQQLAPFDYWGQGTLVTVSS
VL: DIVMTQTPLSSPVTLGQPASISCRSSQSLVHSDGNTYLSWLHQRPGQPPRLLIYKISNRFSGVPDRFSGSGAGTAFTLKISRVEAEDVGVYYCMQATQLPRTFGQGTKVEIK
Regarding B1, the “ELISA absorbance 405 nm” value in experiment [1] stood at 1.71 A405; in [2], 1.67 A405; in experiment [3], 0.005 A405; in experiment [4], 0.003 A405; in experiment [6] it was 1.91 A405; in experiment [7], 1.1 A405. Moreover, the “ELISA absorbance 405 nm” value in experiment [8] amounted to 0.003 A405; in experiment [9] it was 0.011 A405. For the same molecule, the binding result is given as “no binding (tested: 100 nM highest concentration)” in [5], “no binding” in experiment [10] and “no binding” in experiment [11]. In addition, the Kd in experiment [12] was 4.3 nM.

B2: 13.1.2 mIgG2a (antibody, V domains shown)
VH: B1 VH
VL: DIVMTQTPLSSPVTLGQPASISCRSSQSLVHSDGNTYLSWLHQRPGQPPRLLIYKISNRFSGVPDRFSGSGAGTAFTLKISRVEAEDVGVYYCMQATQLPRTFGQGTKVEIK
For B2, the “ELISA absorbance 405 nm” value in experiment [1] is 1.5 A405; in [2], 1.49 A405; in experiment [3], 0.002 A405; in [4], 0.003 A405; in experiment [6] it was 2.09 A405; in [7], 1.29 A405. In addition, the “ELISA absorbance 405 nm” value in experiment [8] is 0.007 A405; in experiment [9], 0.009 A405. In addition, the binding result in [5] is listed as “no binding (tested: 100 nM highest concentration)”; in experiment [10], “no binding”; in [11], “no binding”. Moreover, in experiment [12], the Kd was determined as 4.2 nM.

B3: F265-9C9 (antibody, V domains shown)
VH: QVQLQQPGAELVKPGASVKLSCKASGYTFTSYWMHWVKQRPGQDLEWIGEIDPSDSYTNYNQKFKGKATLTVDKSSSTAYIQLSSLTSEDSALYYCARFDFAYWGQGTLVTVSA
VL: EIVLTQSPTLMAASPGEKVTITCSVSSSISSSNLHWYQQKSETSPKPWIYDTSNLASGVPIRFSGSGSGTSYSLTISSVEAEDAATYYCQQWSSYPLTFGSGTKLEIK
notes: Mouse hybridoma mAb
As to B3, the “% survival (DM1 secondary-conjugate ADC surrogate assay, vs mouse IgG)” value in experiment [13] was found to be 82%. Moreover, the binding result in experiment [14], in experiment [15], in [16], in [17], in experiment [18] and in [19] was “no binding (tested: 0-15% of wild-type binding)” in each case. For the same molecule, the binding result in experiment [21] is given as “binds”. Moreover, the “ELISA absorbance 405 nm” value in [1] came to 0.503 A405; in experiment [2], 1.29 A405; in [3] it was 0.003 A405; in experiment [4], 0.038 A405; in [6] it was 1.72 A405; in experiment [7], 1.2 A405. Moreover, the “ELISA absorbance 405 nm” value in experiment [8] stood at 0.064 A405; in [9], 0.21 A405. Moreover, in experiment [20], the “% internalization (pHrodo surrogate assay, vs 225 mAb)” value stood at 87%. Moreover, the “% of binding vs wild-type fragment 15-37” value in experiment [22] is 87.1%; in experiment [23], 115%; in [24], 159%; in experiment [25] it was 87.5%; in [26], 152%; in experiment [27], 205%. In addition, the “% of binding vs wild-type fragment 15-37” value in experiment [28] turned out to be 108%; in experiment [29], 138%; in [30], 22.6%; in experiment [31] it was 63.2%; in experiment [32], 211%; in experiment [33], 51.9%. Further, in experiment [34], the “% of binding vs wild-type fragment 15-37” value came to 160%. In addition, the Kd in [12] was greater than 200 nM.

B4: hFc-4E11 (antibody, human IgG1, kappa, V domains shown)
VH: DVQLQESGPGLVKPSQSLSLTCTVTGYSITSDYAWNWIRQFPGNKLEWMGYIGYNGRTSYNPSLKSRISITRDTSKNQFFLQLNYVTTEDTATFYCARLGRGFAYWGQGTLVTVSA
VL: DILMTQSPSSMSVSLGDTVSITCHASQGINSNIGWLLQKPGKSFKGLIYHGTNLEDGVPSRFSGSGSGTDYSLTISSLESEDFADYYCVQYAQFPYTFGGGTKLEIKR
notes: Chimeric antibody, mouse variable regions on human IgG1 / human kappa, produced in CHO cells; also called chimeric 4E11
With B4, the binding result in experiment [35] is reported as “no binding”. In addition, the Kd came out at 2.6 nM in [36] and 1.43 nM in [38]. In [37], this molecule yielded a Bmax of 12100.
